The record followed here is patent publication US20220289859A1 (GlaxoSmithKline, published 2022).

One assay has as its target T1, FcγRIIIa (UniProt P08637 17-208, limits assumed).
T1 construct: also called CD16a
Nature of the assay: SPR specific binding activity, protein A capture; ref std #162397940.

In assay [1] the target is T2, BCMA (UniProt Q02223 1-54, limits assumed).
T2 construct: also called antigen; CD269
T2 sequence (looked up): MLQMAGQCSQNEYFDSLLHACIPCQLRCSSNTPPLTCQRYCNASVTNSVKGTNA
The description is as above.
Experimental: (§1) The specific binding activity (%) was calculated by dividing the BCMA or FcγRIIIa binding concentration by the absorbance at 280 nm concentration.

Assay [2] concerns the target Neonatal Fc Receptor (FcRn) (UniProt P55899 24-297; P61769 21-119, limits assumed). As to the kind of experiment: SPR specific binding activity, FcRn on NTA chip; ref std #162397940.
Experimental: The FcRn binding concentration of the sample was determined by interpolation of the binding response on a calibration curve. Specific binding activity (%) was calculated by dividing the FcRn binding concentration by the total protein concentration.
Assay [3] concerns the target T2, BCMA. Nature of the assay: SPR, protein A capture; H2O2-treated 1 h; ref std #182407660A. On the technique in general: Surface plasmon resonance follows binding to a sensor surface in real time, without labels.
Experimental: as §1
The target in assay [4] is T2, BCMA. Nature of the assay: SPR as in Example 4; glyco-enriched samples of belantamab.
Experimental: as §1

T1 sequence (P08637 17-208 limits assumed): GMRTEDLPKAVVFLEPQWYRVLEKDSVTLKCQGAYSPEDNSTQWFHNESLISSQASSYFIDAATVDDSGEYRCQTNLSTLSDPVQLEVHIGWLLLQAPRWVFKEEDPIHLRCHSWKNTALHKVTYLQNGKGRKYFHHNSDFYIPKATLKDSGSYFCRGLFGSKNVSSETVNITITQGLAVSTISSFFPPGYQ
Chain of Neonatal Fc Receptor (FcRn) (P55899 24-297 limits assumed, form in doubt, chain 1 of 2): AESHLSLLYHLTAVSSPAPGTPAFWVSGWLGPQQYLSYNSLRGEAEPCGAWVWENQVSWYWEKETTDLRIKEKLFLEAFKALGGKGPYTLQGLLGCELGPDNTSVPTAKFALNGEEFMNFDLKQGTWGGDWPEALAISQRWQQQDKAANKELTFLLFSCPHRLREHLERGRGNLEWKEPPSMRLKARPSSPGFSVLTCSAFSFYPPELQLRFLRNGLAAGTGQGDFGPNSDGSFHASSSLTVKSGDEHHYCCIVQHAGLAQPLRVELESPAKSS
Chain of Neonatal Fc Receptor (FcRn) (P61769 21-119 limits assumed, form in doubt, chain 2 of 2): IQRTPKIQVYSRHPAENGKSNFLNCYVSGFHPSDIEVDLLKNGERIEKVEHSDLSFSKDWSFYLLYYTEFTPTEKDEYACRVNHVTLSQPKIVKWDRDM
Experimental for FcγRIIIa: as §1

B1: belantamab mafodotin (antibody, human IgG1, kappa)
heavy: not shown
light: not shown
modifications: MMAF on LC C214 in part of the molecules; MMAF conjugated to interchain cysteine sulfhydryls (sites printed at paragraph 239: HC 224, C230, HC 233); heterogeneous drug load DL0 to DL8, average DAR about 4 (2.1 to 5.7 in the DAR samples of Example 4)
notes: Antibody-drug conjugate: belantamab conjugated to MMAF; Tested as lots, as samples of differing average DAR and as forced-degradation samples (oxidised, base, acid, thermal, photo); the sample is named in each row; also called anti-BCMA ADC; ADC
Turning to B1, in the assay with FcγRIIIa, the “FcγRIIIa (%)” value came to 97%. In addition, the “BCMA (%)” value with BCMA [1] came to 96%. Further, in assay [2], the “FcRn (%)” value was 101%. For the same molecule, the “% Antigen Specific Binding” value with BCMA [3] stood at 99%.

B2: belantamab mafodotin DL8 species (antibody, human IgG1, kappa)
heavy: not shown
light: not shown
modifications: MMAF on LC C214; drug load of eight MMAF; conjugation sites as printed: LC C214, HC 224, LC C214, HC 224, LC C230, HC 233, LC C230 and HC 233
With B2, the “FcγRIIIa (%)” value in the assay with FcγRIIIa worked out at 82%. Also, in the assay with BCMA [1], the “BCMA (%)” value is 86%. For the same molecule, the “FcRn (%)” value in assay [2] was found to be 93%.

B3: belantamab mafodotin DL0 species (antibody, human IgG1, kappa)
heavy: not shown
light: not shown
modifications: no drug load
notes: antibody without cytotoxic agent
As for B3, the “FcγRIIIa (%)” value with FcγRIIIa was 110%. Besides, in the assay with BCMA [1], the “BCMA (%)” value came out at 103%. In addition, in assay [2], the “FcRn (%)” value is 108%.

B4: belantamab mafodotin DL6 species (antibody, human IgG1, kappa)
heavy: not shown
light: not shown
modifications: MMAF on LC C214 of one light chain; drug load of six MMAF; conjugation sites as printed: LC C214, HC 224, LC C230, HC 233, LC C230 and HC 233
Regarding B4, the “FcγRIIIa (%)” value in the assay with FcγRIIIa was determined as 84%. For the same molecule, the “BCMA (%)” value with BCMA [1] came out at 89%. In addition, the “FcRn (%)” value in assay [2] is 97%.

B5: belantamab mafodotin DL4b species (antibody, human IgG1, kappa)
heavy: not shown
light: not shown
modifications: drug load of four MMAF; conjugation sites as printed: LC C230, HC 233, LC C230 and HC 233
In the case of B5, in the assay with FcγRIIIa, the “FcγRIIIa (%)” value was determined as 91%. In the assay with BCMA [1], the “BCMA (%)” value worked out at 90%. Further, the “FcRn (%)” value in assay [2] was found to be 99%.

B6: belantamab deglycosylated with PNGaseF (antibody, human IgG1, kappa)
heavy: not shown
light: not shown
modifications: N-linked glycans removed with PNGaseF
For B6, the “Specific BCMA binding activity” value in the assay with BCMA [4] came to 95%.

B7: belantamab mafodotin DL2 species (antibody, human IgG1, kappa)
heavy: not shown
light: not shown
modifications: MMAF on LC C214 of one light chain; drug load of two MMAF per antibody; conjugation sites LC C214 and HC 224 (one embodiment)
B7: the “FcγRIIIa (%)” value with FcγRIIIa amounted to 104%. In addition, in the assay with BCMA [1], the “BCMA (%)” value came to 99%. Moreover, the “FcRn (%)” value in assay [2] turned out to be 109%.

B8: belantamab mafodotin DL4a species (antibody, human IgG1, kappa)
heavy: not shown
light: not shown
modifications: MMAF on LC C214; drug load of four MMAF; conjugation sites LC C214, HC 224, LC C214 and HC 224
Turning to B8, in the assay with FcγRIIIa, the “FcγRIIIa (%)” value was determined as 103%. Moreover, the “BCMA (%)” value with BCMA [1] stood at 95%. Also, the “FcRn (%)” value in assay [2] was 102%.
